The values that follow come from publication PMC10135725, “Vutiglabridin Modulates Paraoxonase 1 and Ameliorates Diet-Induced Obesity in Hyperlipidemic Mice” (Biomolecules, 2023).

Substrate in this data set: CCCCSC1CCC(=O)O1
The data set can be described thus: purified protein. The format is biochemical, Homo sapiens. The conditions noted are these: 50 mM Tris-HCl pH 8, 1 mM CaCl2, RT, no OX-LA, no vutiglabridin.

B1: Recombinant PON1 (rePON1), carboxy-terminal hexahistidine tag (Homo sapiens) (protein)
chain: AKLIALTLLGMGLALFRNHQSSYQTRLNALREVQPVELPNCNLVKGIETGSEDLEILPNGLAFISSGLKYPGIKSFNPNSPGKILLMDLNEEDPTVLELGITGSKFDVSSFNPHGISTFTDEDNAMYLLVVNHPDAKSTVELFKFQEEEKSLLHLKTIRHKLLPNLNDIVAVGPEHFYGTNDHYFLDPYLQSWEMYLGLAWSYVVYYSPSEVRVVAEGFDFANGINISPDGKYVYIAELLAHKIHVYEKHANWTLTPLKSLDFNTLVDNISVDPETGDLWVGCHPNGMKIFFYDSENPPASEVLRIQNILTEEPKVTQVYAENGTVLQGSTVASVYKGKLLIGTVFHKALYCEL
notes: purified, C-terminal hexahistidine tag, expressed in CHO-K1 cells
As to B1, the Km amounted to 155.78 µM and the Vmax was found to be 92.3 µM/min.
